Changes are numbered by the printed parent chain. Several values for one entry are separate records, joined by “and”; a condition that tells them apart may be missing. Equal entries are not always repeated.
Columns and labels:
[1] = biological target: T1, human CEACAM6, full-length, on cells (human, UniProt P40199 35-320); experiment: FACS, KS cells (endogenous CEACAM6)
T1 construct: used both for transfected HeLa cells and for tumor cell lines that express CEACAM6 endogenously; also called TPP-4639; HeLa human CEACAM6
T1 sequence: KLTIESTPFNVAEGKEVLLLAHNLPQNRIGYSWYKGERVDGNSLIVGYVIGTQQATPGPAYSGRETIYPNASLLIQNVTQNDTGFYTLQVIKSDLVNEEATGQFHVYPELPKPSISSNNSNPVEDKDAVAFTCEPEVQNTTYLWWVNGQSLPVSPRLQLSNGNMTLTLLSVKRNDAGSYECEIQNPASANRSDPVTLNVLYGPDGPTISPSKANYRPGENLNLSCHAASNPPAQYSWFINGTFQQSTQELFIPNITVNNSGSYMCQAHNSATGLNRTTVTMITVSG

[2] = biological target: T1, human CEACAM6, full-length, on cells; experiment: FACS, NCI-H1993 cells (endogenous CEACAM6)
Procedure: (§1) For FACS experiments HeLa wild type cells were cultured in RPMI-1640, 10% FCS, while CEACAM-receptor transfected HeLa cells received in addition 0.5% Gentamycin (stock 10 mg/ml, Fa. PAA) and 200 μg/ml Hygromycin B (stock 50 mg/ml, Invitrogen). Cells were washed 3 times with PBS w/o Ca²⁺/Mg²⁺ and were detached from the culture plate non-enzymatically with EDTA dissociation buffer (Gibco). Cells were washed in cold FACS buffer (PBS w/o Ca²⁺/Mg²⁺ and heat-inactivated 3% FCS) and were counted using a countess machine (Invitrogen). 10⁵ cells per well were plated and incubated with the respective primary antibody (5 μg/ml) for 1 h at 4° C. on a plate shaker. […] After 2 times washing the cells were resuspended in 100 μl FACS buffer and were analysed on a FACS Canto II machine (Beckton Dickinson) or a FACS Array (Beckton Dickinson).
(§2) For EC₅₀ analysis, the primary antibodies were used at increasing concentrations in a range from 0.1 nM to 100 nM. Half maximal binding values (EC₅₀) were determined by plotting the median fluorescence intensity signal against the concentration (logarithmic scale). Curve fitting of data was performed using the Graph Pad prism analysis software.
(§3) Anti-CEACAM6 antibodies were also tested for their binding to different cancer cell lines that endogenously express CEACAM6 by FACS analysis. […]

[3] = biological target: T2, Human CEACAM6-Domain 1-His-I30F (I63F according to SEQ-ID NO: 179) (human); experiment: ELISA, domain 1 protein coated
T2 construct: the entry already carries the substitution; also called TPP-8698
T2 chain: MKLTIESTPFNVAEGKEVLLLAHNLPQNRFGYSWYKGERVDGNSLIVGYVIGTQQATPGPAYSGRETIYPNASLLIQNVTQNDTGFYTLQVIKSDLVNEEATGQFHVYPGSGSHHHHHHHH
Procedure: (§4) The proteins were expressed in E. coli, refolded and purified as described in Example 1. Comparative binding activity to domain 1 wild-type protein and the two single mutations was determined by ELISA method. 1.5 ug/ml protein solutions in PBS were coated overnight to 384 Nunc MaxiSorp plates (Sigma, P6491). Plates were washed with PBS/T and blocked with Smart block (CANDOR Bioscience GmbH, 113125). […] After washing with PBS/T, bound antibodies were detected with Anti Human IgG Fc POD (Sigma, A0170) and 10 μM Amplex Red solution (Thermo, A12222). Positive binding signals were detected via Fluorescence (Ex. 535 nm/Em. 590 nm).

[4] = biological target: T3, Human CEACAM6-Domain 1-His-I30L (I63L according to SEQ-ID NO: 179) (human); experiment: ELISA, domain 1 protein coated
T3 construct: the entry already carries the substitution; also called TPP-8697
T3 chain: T2 chain with F30L
Procedure: as §4

[5] = biological target: T1, human CEACAM6, full-length, on cells; experiment: FACS, PaTu-8902 cells (endogenous CEACAM6)
Procedure: as §1, §2, §3

[6] = biological target: T1, human CEACAM6, full-length, on cells; experiment: cell-based or functional assay
[7] = biological target: T1, human CEACAM6, full-length, on cells; experiment: FACS, SNU-C1 cells (endogenous CEACAM6)
Procedure: as §1, §2, §3

[8] = biological target: T1, human CEACAM6, full-length, on cells; experiment: FACS, T84 cells (endogenous CEACAM6)
Procedure: as §1, §2, §3

EC50 [1]: 0.8 nM | EC50 [2]: 0.8 to 1.6 nM | binding result [3]: no binding | binding result [4]: binds | EC50 [5]: 0.15 nM | EC50 [7]: 0.5 nM | EC50 [8]: 0.3 nM
B1: TPP-3310 (antibody, human IgG2, kappa)
heavy: QVTLRESGPALVKPTQTLTLTCTFSGFSLSTYGIGVGWIRQPPGKALEWLAHIWWNDNKYYSTSLKTRLTISKDTSKNQVVLTMTNMDPVDTATYYCARISLPYFDYWGQGTTLTVSSASTKGPSVFPLAPCSRSTSESTAALGCLVKDYFPEPVTVSWNSGALTSGVHTFPAVLQSSGLYSLSSVVTVPSSNFGTQTYTCNVDHKPSNTKVDKTVERKCCVECPPCPAPPVAGPSVFLFPPKPKDTLMISRTPEVTCVVVDVSHEDPEVQFNWYVDGVEVHNAKTKPREEQFNSTFRVVSVLTVVHQDWLNGKEYKCKVSNKGLPAPIEKTISKTKGQPREPQVYTLPPSREEMTKNQVSLTCLVKGFYPSDIAVEWESNGQPENNYKTTPPMLDSDGSFFLYSKLTVDKSRWQQGNVFSCSVMHEALHNHYTQKSLSLSPG
light: DIQLTQSPSFLSASVGDRVTITCKASQNVGTAVAWYQQKPGKAPKLLIYSASNRYTGVPSRFSGSGSGTEFTLTISSLQPEDFATYYCQQYSSYPLTFGGGTKVEIKRTVAAPSVFIFPPSDEQLKSGTASVVCLLNNFYPREAKVQWKVDNALQSGNSQESVTEQDSKDSTYSLSSTLTLSKADYEKHKVYACEVTHQGLSSPVTKSFNRGEC
notes: humanized from TPP-2971, human IgG2; also called TPP-2971HU1-hIgG2Kappa
IC50 of the dose dependent effect on TIL mediated killing of HCC2935 cells (xCELLigence) [6]: 0.62 mg/L and 0.21 mg/L

Source: patent publication US20200181261A1 (Bayer, published 2020)
